# Values of other authors in PMC5031454.
# Molecular target: Dscam1 Ig1-4 (Drosophila melanogaster) (UniProt Q0E9H9)
# UniProt Q0E9H9, sequence (Q0E9H9 39-421): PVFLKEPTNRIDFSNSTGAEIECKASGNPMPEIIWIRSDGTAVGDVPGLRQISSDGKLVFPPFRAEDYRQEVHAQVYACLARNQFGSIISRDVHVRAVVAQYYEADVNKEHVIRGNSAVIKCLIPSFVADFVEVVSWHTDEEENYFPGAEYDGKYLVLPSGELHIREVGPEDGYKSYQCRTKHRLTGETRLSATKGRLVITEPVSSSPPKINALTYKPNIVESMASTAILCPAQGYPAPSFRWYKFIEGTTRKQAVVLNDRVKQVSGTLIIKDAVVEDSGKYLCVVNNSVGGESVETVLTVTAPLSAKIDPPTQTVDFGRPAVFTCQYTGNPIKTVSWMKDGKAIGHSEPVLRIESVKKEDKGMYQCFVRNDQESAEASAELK
substance,measurement,value
Slit-N N-terminal fragment (from UniProt P24014),Kd,22 nM
